Experimental data as given in US8980543B2, “Method of measuring enzyme activity by multi-dimensional nuclear magnetic resonance” (Canon Kabushiki Kaisha, priority 2007, dated 2015).

Target: T1, MMP2 (Homo sapiens, UniProt P08253)
T1 construct: purchased R&D systems Inc
T1 sequence (P08253 110-660): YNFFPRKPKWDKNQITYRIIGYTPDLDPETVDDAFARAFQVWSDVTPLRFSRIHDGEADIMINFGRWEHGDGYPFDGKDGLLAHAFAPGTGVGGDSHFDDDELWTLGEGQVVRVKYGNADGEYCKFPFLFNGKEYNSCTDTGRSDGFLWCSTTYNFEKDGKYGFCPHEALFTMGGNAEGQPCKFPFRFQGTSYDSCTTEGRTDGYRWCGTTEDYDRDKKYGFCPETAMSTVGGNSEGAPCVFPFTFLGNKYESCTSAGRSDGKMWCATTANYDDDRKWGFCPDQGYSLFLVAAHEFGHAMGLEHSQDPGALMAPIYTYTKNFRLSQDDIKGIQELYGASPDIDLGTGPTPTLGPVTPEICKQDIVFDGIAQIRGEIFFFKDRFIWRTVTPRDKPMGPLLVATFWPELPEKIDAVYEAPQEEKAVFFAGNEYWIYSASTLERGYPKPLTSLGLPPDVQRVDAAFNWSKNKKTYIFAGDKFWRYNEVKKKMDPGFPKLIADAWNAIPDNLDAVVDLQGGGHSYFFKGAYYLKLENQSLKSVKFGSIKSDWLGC
Assay: Reaction between MMP2 and substrate peptide-probe, cleavage monitored by HPLC and MALDI-TOF-MS
Type: biochemical
Conditions: 1 mM peptide, MMP2 1 μg, TCNB buffer pH 7.5, room temperature (25° C.), 18 hours; fragments GPLG and VRGK
Experimental: A TCNB buffer (50 mM Tris, 10 mM CaCl2, 150 mM NaCl, 0.05% Brij 35, pH 7.5) was used as a buffer for an enzymatic reaction. A MMP2 precursor (R&D systems Inc.) was activated in 1 mM 4-aminophenylmercury acetate (APMA, manufactured by Sigma) in accordance with the protocol attached to the product to obtain activated MMP2 (hereinafter, simply referred to as MMP2). MMP2 (1 μg) was dissolved in 0.9 mL of the reaction buffer. To this solution, 780 μg of the substrate peptide synthesized above was added to obtain a solution containing a peptide in a concentration of 1 mM. The resultant solution was incubated at 25° C. for 18 hours.
The peptide was cleaved by an enzyme, MMP2. The peptide solution before and after the reaction with the enzyme was monitored by HPLC analysis (A=H2O/0.1% TFA and C═CH3CN/0.1% TFA; initial 5 minutes: 0% C, 5 to 35 minutes: 0 to 30% C, using an YMC HPLC column, YMC-Pack ODS-A (AAl2S05-2546WT) manufactured by YMC and having a length of 250 mm and an inner diameter of 4.6 mm; a particle diameter of 5 μm, a pore diameter of 12 nm, a flow amount of 0.8 mL/minute; and detection was made at UV of 220 nm). HPLC elution profiles of the peptide solution (MMP−) before treated with the enzyme and the peptide solution (MMP+) after treated with the enzyme are illustrated in FIG. 5.
The peak was separated and subjected to MALDI-TOF-MS analysis. […]

- cleavage of the isotope-labeled peptide by MMP2: completely cleaved
Sequence: GPLGVRGK
